Target: the molecule itself
Assay: cryo-EM structure

B1: human XPR1 (natural protein)
chain: MKFAEHLSAHITPEWRKQYIQYEAFKDMLYSAQDQAPSVEVTDEDTVKRYFAKFEEKFFQTCEKELAKINTFYSEKLAEAQRRFATLQNELQSSLDAQKESTGVTTLRQRRKPVFHLSHEERVQHRNIKDLKLAFSEFYLSLILLQNYQNLNFTGFRKILKKHDKILETSRGADWRVAHVEVAPFYTCKKINQLISETEAVVTNELEDGDRQKAMKRLRVPPLGAAQPAPAWTTFRVGLFCGIFIVLNITLVLAAVFKLETDRSIWPLIRIYRGGFLLIEFLFLLGINTYGWRQAGVNHVLIFELNPRSNLSHQHLFEIAGFLGILWCLSLLACFFAPISVIPTYVYPLALYGFMVFFLINPTKTFYYKSRFWLLKLLFRVFTAPFHKVGFADFWLADQLNSLSVILMDLEYMICFYSLELKWDESKGLLPNNSEESGICHKYTYGVRAIVQCIPAWLRFIQCLRRYRDTKRAFPHLVNAGKYSTTFFMVTFAALYSTHKERGHSDTMVFFYLWIVFYIISSCYTLIWDLKMDWGLFDKNAGENTFLREEIVYPQKAYYYCAIIEDVILRFAWTIQISITSTTLLPHSGDIIATVFAPLEVFRRFVWNFFRLENEHLNNCGEFRAVRDISVAPLNADDQTLLEQMMDQDDGVRNRQKNRSWKYNQSISLRRPRLASQSKARDTKVLIEDTDDEANT
  stoichiometry N: 2

Source: paper PMC11696373 (Nature Communications, 2025)
